To fix the notation:
B1: recombinant human IL-26 (ligand, UniProt Q9NPH9 22-171, looked up)
chain: KHKQSSFTKSCYPRGTLSQAVDALYIKAAWLKATIPEDRIKNIRLLKKKTKKQFMKNCQFQEQLLSFFMEDVFGQLQLQGCKKIRFVEDFHSLRQKLSHCISCASSAREMKSITRMKRIFYRIGNKGIYKAISELDILLSWIKKLLESSQ
notes: In some functional rows the IL-26 is natural IL-26 in TH17 cell supernatants, as said in the readout; also called rhIL-26; AK155
B2: anti-IL-26 mouse monoclonal antibody clone 142-84-B1 (antibody, V domains shown)
VH: QVQLQQSGAELVRPGASVTLSCKASGFTFPDYEIHWVRQTPVHGLEWIGGIDPETGDTANNQKFKGKATLTADTSSSTAYMELRSLTSEDSAVYYCTRFYGSFDYWDQGTTLTVSS
VL: NIMMTQSPSSLAVSAGEKVTLSCKSSQSVLYSSNQKNYLAWYQQKPGQSPKLLIYWASTRESGVPDRFTGSGSGTDFTLTISSVQAEDLAVYYCHQYLSSYTFGGGTKLEIK
notes: Mouse hybridoma antibody, IgG1; also called clone 84

Data set [1] concerns the molecule itself. The experiment in a line: small angle X-ray scattering (SAXS) of rhIL-26, self-association. The procedure: IL-26 was suspended in 16 mM sodium phosphate buffer, pH 6.5, 560 mM NaCl, 8% glycerol, 2 mM β-mercaptoethanol and concentrated to 1.1 mg/ml. Data were recorded at the ALS, Berkeley, Calif., beamline 12.3.1. (SIBYLS) at 10° C. using a wavelength of 1 A, for values of the momentum transfer vector q=(4π sin θ)/λ between 0.01 and 0.32 Å-1. The same sample was sequentially exposed to X-rays for 0.5s, 1s and 5s. Samples containing buffer only were measured before and after protein samples. The buffer contributions were subtracted from protein scattering data using the ogre new software program available at SIBYLS. Data were not affected by radiation damage as indicated by a constant Rg of the Guinier region for subsequent sample exposures. A combined SAXS pattern was obtained through scaling and merging selected regions of buffer-subtracted scattering pattern for the 0.5s, 1s and 5s exposures. Data between q=0.01 and 0.13 Å-1 were analyzed using PRIMUS, SASREF and DAMMIF of the ATSAS software package.

The data set “recombinant human IL-26” addresses B1. The experiment in a line: ELISA screen of hybridomas.

B1: in data set [1], the binding result is listed as “binds”.
In the case of B2, in the data set with recombinant human IL-26, the binding result is recorded as “binds”.

Values taken from patent US20180207271A1 (CENTRE HOSPITALIER UNIVERSITAIRE VAUDOIS CHUV, published 2018).
